B1: OR4K15 (parent)
chain: GUUAACGGUCAUAGGCCAUGGAAACUAGGAGCACCAUUUCGCUGCCAGUGAAGAAAUGAACAAAGAAAAUCUGGGCCAGGCAGGCAUCAAAAGAAAUAGUCUUGCGCUCAACCAGAAAGUCUGUAAUCAUUUUAAGGGUA

Variants of: B1
Test: self-cleavage, relative activity (ratio to wild type); higher = more cleavage; in vitro, sequencing; the parent is a self-cleaving ribozyme

Variant | self-cleavage
GUUAACGGUCAUAGGCCAUGGAAACUAGGAGCACCAUUACGCUGCCAGUGAAGAAAUGAACAAAGAAAAUCUGGGCCAGGCAGGCAUCAAAAGAAAUAGUCCUGCGCUCAACCAGAAAGUCUGUAAUCAUUUUAAGGGUA | 1.55
GUUAACGGUCAUAGGCCAUGGAAACUAGGAGCACCAUUUCGCUGCCAGUGAAGAAAUGAACAAAGAAAAUCUGGGCCAGGCAGGGAUCAAAAGAAAUAGUCUUGCGCUCAACCAGAAAGUCUGUAGUCAUUUUAAGGGUA | 0.2
GUUAACGGUCAUAGGCCAUGGAAACUAGGUGCACCAUUUCGCUGCCAGUGAAGAAAUGAACAAAGAAAAUCUGGGCCUGGCAGGCAUCAAAAGAAAUAGUCUUGCGCUCAACCAGAAAGUCUGUAAUCAUUUUAAGGGUA | 0.2
GUUAACGGUCAUAGGCCAUGGGAACUAGGAGCACCAUUUCGCUGCCAGUGAAGAAAUGAACAAAGAAAAUCUGGGCCAGGCAGGCAUCAAAAGAAAUAGUCUUGCGCUCAACCAGAAAGUCUGUAAUCAUUCUAAGGGUA | 1.28
GUUAACGGUCAUAGGCCAUGGAAACUAGGAGCACCAUUCCGCUGCCAGUUAAGAAAUGAACAAAGAAAAUCUGGGCCAGGCAGGCAUCAAAAGAAAUAGUCUUGCGCUCAACCAGAAAGUCUGUAAUCAUUUUAAGGGUA | 1.89
GUUAACGGUCACAGGCCAUGGAAACUAGGAGCACCAUUUCGCUGCCAGUGAAGAAAUGAACAAAGAAAAUCUGGGCCAGGCAGGCAUCAAAAGAAAUAGUCAUGCGCUCAACCAGAAAGUCUGUAAUCAUUUUAAGGGUA | 1.94
GUUAACGGUCAUGGGCCAUGGAAACUAGGAGCACCAUUUCGCUGCCAGUGAAGAAAUGAACAAAGAAAAUCUGGGCCAGGCAGGCAUCAAAAGAAAUAGUCUUGCGCUCAACCAGAAAGUCUGUAAUCACUUUAAGGGUA | 0.83
GUUAACGGACAUAGGCCAUGGAAACUAGGAGCACCAUUUCGCUGCCAGUGAAGAAAUGAACAAAGAAAAUCUGGGCCAGGCAGGCAUCAAAAGAAAUAGUCUUGCGCUCAACCAGAAAGUCUGUAAACAUUUUAAGGGUA | 0.66
GUUAACGGUCAUAGGCCAUGGAAACUAGGAGCACCAUUUCGCUGCCAGUGAAGAAAUGAACAAAGAAAAUCUGGGACAGGCAGGCAUCAAAAGAAAUAGUCUUACGCUCAACCAGAAAGUCUGUAAUCAUUUUAAGGGUA | 0.03
GUUAACGGUCAUAGGCCAUGGAAACUAGGAGCACCAUUUAGCUGCCAGUGAAGAAAUGAACAAAGAAGAUCUGGGCCAGGCAGGCAUCAAAAGAAAUAGUCUUGCGCUCAACCAGAAAGUCUGUAAUCAUUUUAAGGGUA | 1.61
GUUAGCGGUCAUAGGCCAUGGAAACUAGGAGCACCAUUUCGCUGCCAGUGAAGAAAUGAACAAGGAAAAUCUGGGCCAGGCAGGCAUCAAAAGAAAUAGUCUUGCGCUCAACCAGAAAGUCUGUAAUCAUUUUAAGGGUA | 1.16
GUUAACGGUCAUAGGCCAUGGAAACUAGGAGCACCAUUUCGCUGCCAGUGAAGGAAUGAACAAAGAAAAUCUGGGCCAGGCAGGCAUCAAAAGAAAUAGUCUAGCGCUCAACCAGAAAGUCUGUAAUCAUUUUAAGGGUA | 0.48
GAUAGCGGUCAUAGGCCAUGGAAACUAGGAGCACCAUUUCGCUGCCAGUGAAGAAAUGAACAAAGAAAAUCUGGGCCAGGCAGGCAUCAAAAGAAAUAGUCUUGCGCUCAACCAGAAAGUCUGUAAUCAUUUUAAGGGUA | 1.24
GUUAACGGUCAUAGGCCAUGGAAACUAGGAGCACCAUUUCGCUGCCAGUGAAGAAAUGAACAAAGAAAAUCUGGGCCAGGCAGGCACCAAAAGAAAUAGUCUUGCGCUCCACCAGAAAGUCUGUAAUCAUUUUAAGGGUA | 0.12
GUUAACGGUCAUAGGCCAUGGAAACUAGGAGCACUAUUUCGCUGCCAGUGAAGAAAUGAACAAAGAAAAUCUGGGCCAGGCAGGCAUCAAAAGAAAUAGUCUUGCGCUCAACCAGAGAGUCUGUAAUCAUUUUAAGGGUA | 1.25
GUUAACGGUCAUAGGCCAUGGAAACUAGGAGCACCAUUUCGCUGCCUGUGAAGAAAUGAACAGAGAAAAUCUGGGCCAGGCAGGCAUCAAAAGAAAUAGUCUUGCGCUCAACCAGAAAGUCUGUAAUCAUUUUAAGGGUA | 0.8
GUUAACGGUCAUAGGCCAUGGAAACUAGGAGCACCAUUUCGCUGCCAGUGAAGAAAUGAACAAAGAAAAUCUGGGCCAGGCAGGCAUCAAAAGAAAUAGUCUUGCGCUCAACCAGAAAGUCUGUAGUCAUCUUAAGGGUA | 1.14
GUUAACGGUCAUAGGCCAUGGAAACUAGGAGCACCAUUUCGCUGCCAGUGAAGAAAUGAACAAAGAAAAUCCGGGCCAGGCAGGCAUCAAAAGAAAUAGUCUUGCGCUCAACCAGAAAGUCUGUGAUCAUUUUAAGGGUA | 0.07
GUUAACGGUCAUAGGCCAUGGAAACUAGGAGCACCAUUUCGCUGCCAGUGGAGAAAUGAACAAAGAAAAUCUGGGCCAGGCAGGCAUCAAAAGAAAUAGUCUUGCGCUCAACCAGAAAGUCUGUAAUCAUUUCAAGGGUA | 1.46
GUUAACGGUCAUAGGCCAUGGAAACUAGGAGCACCAUUUCGCUGCCAGUGAAGAAAUGAACUAAGAAAAUCUUGGCCAGGCAGGCAUCAAAAGAAAUAGUCUUGCGCUCAACCAGAAAGUCUGUAAUCAUUUUAAGGGUA | 0.17

From the RNAGym collection of RNA variant scans (doi:10.7554/elife.90254)
